Reference: the DeepSol protein solubility set

Test: soluble on expression in E. coli; label from the status in PepcDB or PDB records

**Q.** Which “soluble on expression in E. coli” value does the source give for “MSLSKNWLFLGKGFRWRPSHTQKLHQIKQVKNEKFMQRSYCYQLTRRFCQSHEHTKLAKWLNINSKLNPFRPDPPVGGSPFLHGVGDEDKPVYIPQDVRVGHTFVVGTTRVGKTRLASILINQDIRNGDAVIVVDPKGDQDLVRDMVAACKVSGRTEDFKIVHLGFPEQSAQYNPLKKFDQISEVATRITDAISAEGEGKQFAAFAWKYVNIVAICLEEMNQPITYQTIAFYISRLEQLLMSYADNILPNHYLNYHQEIDDIIEEHDSKIGKNNKTKSPMERHQAVIQYIKDHINKTIKSNNAEALHDQILIDLYDAAIMDKHYYDKITASVGPVLSEINKSNASKILSSKAQPGDIELMDVIKNKKVLYIGLDSLTNPNIAQAVGKAFLSDLVSTAGKIYKEPNARYTLNLHCDELSEIIQDSFVKILNKAGGAGFQVTAYAQTIQDMEVALGSRAKAEVSEGNFNTLIMLRVKNEETANLLVKVLPQVGVVGHTQVSMVNDTPHGDDGVYFNTTNEDRVQTSNAPMIGVDDIISLPKGQAFVLASGGEIWKIRIPLPMNSNEGHHHHHH” here?
**A.** Its value is “not soluble”.

**Q.** For “MGLLTNDIIEESAWEALEKSILYYKGRPVGTVAAFDASVEALNYDQCFVRDFVSSALIFLIKGKTDIVRNFLEETLKLQPKDRQLDAYKPGRGLIPASFKVVSDNGEEYLEADFGEHAIARVTPVDSCLWWILLLRAYVVASKDFSLAYQPEFQTGIRLIMEICLANRFDMYPTLLVPDGACMIDRRLGIYGHPLELQVLFYAALRAAREMLICQGNQDVVEAIDNRLPLLCAHIRQHYWIDINRLNAIYRFKSEEYGKAAVNLFNIYVDSIPYYELDKWLPKKGGYLAGNVGPSQLDTRFFALGNLMAIISDLATEEQSQAIMTLIEDRWEDLVGDMPMKICYPALENEEYRIVTGCDPKNIPWSYHNAGSWPVLMWMLAAASVKAGKPYIAGKAIEIAQARLLEDEWPEYYDGKKGRLIGKQARKYQTWTIAGFLLAAELMKNPSLLSLISFDKLPSELVSRACEFEIGSVDASISRLEHHHHHH”, which “soluble on expression in E. coli” value is on record?
**A.** Its value is “soluble”.

**Q.** With “GPGSMLHFPITPPPIEIEYLDNDPLEFAVRTEARKWRFDDMGYMRELAFVRINNNPTVGDFRNMSPDERRNLFWGSDRQDFFRHLTCTLTGSPEHLYHRGW” as the sequence, how does the “soluble on expression in E. coli” value read?
**A.** The value was “not soluble”.

**Q.** Which “soluble on expression in E. coli” value does the source give for “MLMSVFHNWLLEIACENYFVYIKRLSANDTGATGGHQVGLYIPSGIVEKLFPSINHTRELNPSVFLTAHVSSHDCPDSEARAIYYNSAHFGKTRNEKRITRWGRGSPLQDPENTGALTLLAFKLDEQGGDCKEVNIWVCASTDEEDVIETAIGEVIPGALISGPAGQILGGLSLQQAPVNHKYILPEDWHLRFPSGSEIIQYAASHYVKNSLDPDEQLLDRRRVEYDIFLLVEELHVLDIIRKGFGSVDEFIALANSVSNRRKSRAGKSLELHLEHLFIEHGLRHFATQAITEGNKKPDFLFPSAGAYHDTEFPVENLRMLAVKTTCKDRWRQILNEADKIHQVHLFTLQEGVSLAQYREMRESGVRLVVPSSLHKKYPEAVRAELMTLGAFIAELTGLYADIP” here?
**A.** The value was “soluble”.

**Q.** Which “soluble on expression in E. coli” value does the source give for “MGSDKIHHHHHHLVPPDYQDPPSDFTAEVEAGLQLNTGNNESKNFNSRAYLTYDTPKTRQEGTFKVYYAADGTETTSEKYDLFLQSSYKLNRGYVFGRGEFTWDDFGSFTEIRTLSTGYGFDLIKSYKTKLSLEAGPGYRYDMPRATLSDPEPRANREVILRTAARYSVKLQEYTSLNADVTAETGLDNNTLTLDMSYKNTFLQDWAFKIGMNVRYTQDVPQDSQRTDTTTTFNLLYTFQ” here?
**A.** The value was “not soluble”.

**Q.** With “MGSDKIHHHHHHMNLEEENTIFKPLYSLKHSPINAYFSKNSDDFVVRERPLYEFSGKGEHLILHINKKDLTTNEALKILSEASGVKIRDFGYAGLKDKQGSTFQYLSMPKKFESFLSNFSHPKLKILEIFTHENKLRIGHLKGNSFFIRLKKVLPSDALKLEQALMNLDKQGFANYFGYQRFGKFGDNYKEGLEILRGKKMKNVKMKEFLISAFQSELFNRYLSKRVELSHFANDFSEKELIQIYKISKEEAKELKKQEQFFKLLKGEVLGHYPFGKCFLCEDLSAELGRFKARDISAMGLLIGAKAYETGEGLALNLENEIFKDTLEFKAKMQGSRRFMWGYLEELKWRYDEEKAHFCIEFFLQKGSYATVVLEEILHKNLFE” as the sequence, how does the “soluble on expression in E. coli” value read?
**A.** The value was “not soluble”.

**Q.** Which “soluble on expression in E. coli” value does the source give for “DKQKALKKIAKCLELGNSANINEAANAIKMAHNLMLKYGLDKDDIEFIKMGKTQSTHLLPAAISSGILRVIRGINTRFGVEAVLLNHKGLKRVEFIGEADRAIFAAFAFDIIYREMNEQTGQFRNSFAGTGTSSLEVTRRVNSFVSGWIEGALEKLPIITPDEDSMNKINSYIDKEFENIDRETFKQQLREAMKNLTEDYETGLKKGRRVSVNRPIHGAQAPKLLK” here?
**A.** Its value is “not soluble”.

**Q.** With “SSTDQGTNPADTDDLTPTTLSLAGDFPKATEEQWEREVEKVLNRGRPPEKQLTFAECLKRLTVHTVDGIDIVPMYRPKDAPKKLGYPGVAPFTRGTTVRNGDMDAWDVRALHEDPDEKFTRKAILEGLERGVTSLLLRVDPDAIAPEHLDEVLSDVLLEMTKVEVFSRYDQGAAAEALVSVYERSDKPAKDLALNLGLDPIGFAALQGTEPDLTVLGDWVRRLAKFSPDSRAVTIDANIYHNAGAGDVAELAWALATGAEYVRALVEQGFTATEAFDTINFRVTATHDQFLTIARLRALREAWARIGEVFGVDEDKRGARQNAITSWRELTREDPYVNILRGSIATFSASVGGAESITTLPFTQALGLPEDDFPLRIARNTGIVLAEEVNIGRVNDPAGGSYYVESLTRSLADAAWKEFQEVEKLGGMSKAVMTEHVTKVLDACNAERAKRLANRKQPITAVSEFPMIGARSIETKPFPAAPARKGLAWHRDSEVFEQLMDRSTSVSERPKVFLACLGTRRDFGGREGFSSPVWHIAGIDTPQVEGGTTAEIVEAFKKSGAQVADLCSSAKVYAQQGLEVAKALKAAGAKALYLSGAFKEFGDDAAEAEKLIDGRLFMGMDVVDTLSSTLDILGVAK” as the sequence, how does the “soluble on expression in E. coli” value read?
**A.** The value was “soluble”.

**Q.** For “MPEPHPAPQPYTVAALYQFRALPDPAALRAELLALGERLELCGTLIVADEGINGTVAGSAAAIAELHAFLLASGFDRLEYKESQASEKPFKRYKVRLKKEIVTLGVPVAPREQVGTYLDPQAWNDLLADPEVIVVDTRNRYEVKAGTFQGAVDPEIDSFREFPAWVDEHLAGAEGKKIAMFCTGGIRCEKSTSLLLQKGFQDVYHLKGGILKYLEDVPQAQSRWDGECFVFDGRVTVGHGLQEGDAVMCHSCGWPLTAQERAHPQFEEGVSCEHCFDETTDVQKAAFRERQRMYEAGHLTLEHHHHHH”, which “soluble on expression in E. coli” value is on record?
**A.** Its value is “not soluble”.

**Q.** With “MAAPASSATLPSVLQLTANTSAGGKRPSRAVTMPALKQAAKAAAAAPSPSPSFHVFADLPDHLLCSPDNSVWVYAQHTLSFLTSEAAAQAKLGRKVQRMMREAQRQYDISCAFFHSMSSDEQMAEVLRVGSGGGALSLPPAMTAATGTPAKSDRKRLTGVHRALRDAWPTWRGPNMSDAANSLTAREVGGAGESESSENRYSAGLRVNIVLDIVASRKTLRTVPLRSRPYRLAEYLYQLVMQPSATQRATAAPALGDMASHVRSLIIGISDADTTLVGCHIVCPYRHLTSPTPMMMRLRRAIEGAADQERARALAAAEAANTTVSGLDTQWQASSAAAAAEAAASDAAPSPLRSLVASHLAHYRRVDALFPAPYVRVPPQSLEQIDQNRLILCTPGKLLDG” as the sequence, how does the “soluble on expression in E. coli” value read?
**A.** The value was “not soluble”.

**Q.** Which “soluble on expression in E. coli” value does the source give for “MGSDKIHHHHHHMRNELPPENAYRILESGPIVLVSTRGADGRANLMTMGFHMMMQHEPPLVGAIIGPWDYSHQALSETGECVLAVPTVDLAETVVDIGNCSGDALDKFGHFGLTPVPAQTVDAPLVRQCWANLECRVVDDGWARRYNLWVLEVQRIWIDTARKETRLIHHQGDGRFSVDGDTLDLGERMTKWRHLMG” here?
**A.** Its value is “not soluble”.

**Q.** With “MANHKPEIVITYCTQCQWLLRAAWLAQELLSTFADDLGRVALEPGTGGIFRITCNGVQIWERKADGGFPEAKVLKQRVRDQVDPQRDLGHNDRLEHHHHHH” as the sequence, how does the “soluble on expression in E. coli” value read?
**A.** The value was “soluble”.

**Q.** With “MGSDKIHHHHHHMFSARLKAIAQPVLADIENHPFVRGIQAGAVPAAALMVYVEQDTCFLDAFAKVYAGALSKCTTKDQMRFFEEQIRYTLNDEAGAHQILCDIAGQKLSDHQHAKQRPITYLYNEHLFNALRTGDLIDLIAAMLPCPWTYTEISQQIVDGAAPDNPFLPWIEFYQPQPGQIDGSMVKTLFGMVDELAIGLSEERQHEIEQRFLRSCELEYEFWEQAYYQKDWKYKN” as the sequence, how does the “soluble on expression in E. coli” value read?
**A.** Its value is “not soluble”.

**Q.** For “PEREAVALVGTRRASPWALAFARRLARELAEAGLWVVSGLARGIDREAHLGALEAGGRTLGVLGSALDRVYPPENRPLAQRMDLLSEFPFGTGPKPEFFPRRNRLIAGLCRAVVVVEAPLDSGALITARHALELGKEVLAVPGRPTDERSLGANRLIQDGAYPVLSAEDVLSYLGMSARP”, which “soluble on expression in E. coli” value is on record?
**A.** Its value is “not soluble”.
